The target of data set [1] is T1, E2F8 DBD1-DBD2 (human, UniProt A0AVK6 110-350). In words: ITC; no binding detected under same conditions, 20 C; ITC: 20 mM HEPES pH 7.5, 150 mM NaCl, 5% glycerol, TCEP (printed 0.5 M), 20 C; 0.1 mM protein into 0.012-0.016 mM DNA. On the technique in general: Isothermal titration calorimetry measures the heat released or taken up as one component is titrated into another.

Data set [2] deals with T1, E2F8 DBD1-DBD2. The data set can be described thus: ITC; 20 C; ITC: 20 mM HEPES pH 7.5, 150 mM NaCl, 5% glycerol, TCEP (printed 0.5 M), 20 C; 0.1 mM protein into 0.012-0.016 mM DNA.

For two molecules, binding result and Kd results are on record in publication PMC4686757.

T1 sequence (A0AVK6 110-350): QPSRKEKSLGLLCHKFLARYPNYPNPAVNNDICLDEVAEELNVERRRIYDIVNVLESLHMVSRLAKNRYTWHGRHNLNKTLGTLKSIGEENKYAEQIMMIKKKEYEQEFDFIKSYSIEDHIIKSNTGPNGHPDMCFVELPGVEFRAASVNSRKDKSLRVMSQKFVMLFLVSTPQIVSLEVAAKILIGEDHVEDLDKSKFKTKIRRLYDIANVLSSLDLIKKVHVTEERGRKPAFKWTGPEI

B1: canonical symmetrical E2F site GCGCGCC (dsDNA)
DNA 1: CTTTTGCGCGCCAAAG
DNA 2: CTTTGGCGCGCAAAAG
B1: in data set [1], the binding result is recorded as “no binding”.

B2: E2F8 SELEX-preferred site GGCGGG (dsDNA)
DNA 1: TTTTTGGCGGGAAAA
DNA 2: TTTTCCCGCCAAAAA
As to B2, the Kd (in general, the equilibrium constant for the complex coming apart) in data set [2] was roughly 260 nM.
